Numbering of substitutions follows the chain as printed.

Results on 6 molecules are retold here after patent US11780902B1, “Receptor/histidine kinase fusion constructs and uses thereof” (priority 2018, dated 2023).

One test relates to GFP reporter gene. Put plainly: Maltose / aspartate induction of Tar HK fusions, GFP reporter gene fluorescence, FACS screen. As to conditions: for maltose inducibility: maltose via MBP. Format: cell-based, E. coli.
For test [1] the following is noted: cited from earlier work.

B1: Tac8: TrzChim3-8 with the chemotactic receptor Tar replacing the chemotactic receptor Trg, SEQ ID NO:22 (protein)
chain: MINRIRVVTLLVMVLGVFALLQLISGSLFFSSLHHSQKSFVVSNQLREQQGELTSTWDLMLQTRINLSRSAVRMMMDSSNQQSNAKVELLDSARKTLAQAATHYKKFKSMAPLPEMVATSRNIDEKYKNYYTALTELIDYLDYGNTGAYFAQPTQGMQNAMGERFAQYALSSEKLYRDIVTDNADDYRFAQWQLAVIALVVVLILLVAWYGIRRMLLTPLAKIIAHIREIAGGNLANTLTIDGRSEMGDLAQSVSHMAAGVKQLRGVRTLLMAGVSHDLRTPLTVLQGYLEMMNEQPLEGAVREKALHTMREQTQRMNAIIEQFIDYLRTGQEMPMEMADLNAVLGEVIAAESGYEREIETALYPGSIEVKMHPLSIKRAVANMVVNAARYGNGWIKVSSGTEPNRAWFQVEDDGPGIAPEQRKHLFQPFVRGDSARTISGTGLGLAIVQRIVDNHNGMLELGTSERGGLSIRAWLPVPVTRAQGTTKEG
modifications: Fusion protein
In the case of B1, in the test with GFP reporter gene, the aspartate inducibility entry is “aspartate inducibility of both fusions was observed” and the maltose inducibility entry is on record as “no maltose inducibility”.

B2: Tac40: Maltose inducible directed evolution variant of Tac8, SEQ ID NO:24 (protein)
chain: B1 chain with R265V, G266W, V267R
modifications: Fusion protein
B2: the maltose inducibility result with GFP reporter gene is on record as “Maltose inducible”.

B3: TazPhoR: TrzPhoR fusion with the Tar chemotactic receptor replacing the Trg chemotactic receptor, SEQ ID NO:16 (protein)
chain: MKLLSKTFLILTLTFFFFGIALAKMINRIRVVTLLVMVLGVFALLQLISGSLFFSSLHHSQKSFVVSNQLREQQGELTSTWDLMLQTRINLSRSAVRMMMDSSNQQSNAKVELLDSARKTLAQAATHYKKFKSMAPLPEMVATSRNIDEKYKNYYTALTELIDYLDYGNTGAYFAQPTQGMQNAMGEAFAQYALSSEKLYRDIVTDNADDYRFAQWQLAVIALVVVLILLVAWYGIRRMLLTPLAKIIAHIREIAGGNLANTLTIDGRSEMGDLAQSVSHMAAGVKQLEGARRNFFANVSHELRTPLTVLQGYLEMMNEQPLEGAVREKALHTMREQTQRMEGLVKQLLTLSKIEAAPTHLLNEKVDVPMMLRVVEREAQTLSQKKQTFTFEIDNGLKVSGNEDQLRSAISNLVYNAVNHTPEGTHITVRWQRVPHGAEFSVEDNGPGIAPEHIPRLTERFYRVDKARSRQTGGSGLGLAIVKHAVNHHESRLNIESTVGKGTRFSFVIPERLIAKNSD
modifications: Fusion protein
On to B3, for which, in the test with GFP reporter gene, the aspartate inducibility result is recorded as “aspartate inducibility of both fusions was observed” and the maltose inducibility result is “no maltose inducibility”.

B4: TazPhoR 86: Maltose inducible directed evolution variant of TazPhoR, SEQ ID NO:20 (protein)
chain: B3 chain with E289R, G290V, A291W
modifications: Fusion protein
As for B4, the maltose inducibility result in the test with GFP reporter gene is on record as “Maltose inducible”.

B5: TazPhoR 61: Maltose inducible directed evolution variant of TazPhoR, SEQ ID NO:18 (protein)
chain: MKLLSKTFLILTLTFFFFGIALAKMINRIRVVTLLVMVLGVFALLQLISGSLFFSSLHHSQKSFVVSNQLREQQGELTSTWDLMLQTRINLSRSAVRMMMDSSNQQSNAKVELLDSARKTLAQAATHYKKFKSMAPLPEMVATSRNIDEKYKNYYTALTELIDYLDYGNTGAYFAQPTQGMQNAMGEAFAQYALSSEKLYRDIVTDNADDYRFAQWQLAVIALVVVLILLVAWYGIRRMLLTPLAKIIAHIREIAGGNLANTLTIDGRSEMGDLAQSVSHMAAGVKQLRRNFFANVSHELRTPLTVLQGYLEMMNEQPLEGAVREKALHTMREQTQRMEGLVKQLLTLSKIEAAPTHLLNEKVDVPMMLRVVEREAQTLSQKKQTFTFEIDNGLKVSGNEDQLRSAISNLVYNAVNHTPEGTHITVRWQRVPHGAEFSVEDNGPGIAPEHIPRLTERFYRVDKARSRQTGGSGLGLAIVKHAVNHHESRLNIESTVGKGTRFSFVIPERLIAKNSD
modifications: Fusion protein
For the molecule B5, the maltose inducibility result with GFP reporter gene was “Maltose inducible”.

B6: Taz: Tar chemotactic receptor fused to EnvZ histidine kinase at conserved HAMP domain, SEQ ID NO:38 (protein)
chain: MINRIRVVTLLVMVLGVFALLQLISGSLFFSSLHHSQKSFVVSNQLREQQGELTSTWDLMLQTRINLSRSAVRMMMDSSNQQSNAKVELLDSARKTLAQAATHYKKFKSMAPLPEMVATSRNIDEKYKNYYTALTELIDYLDYGNTGAYFAQPTQGMQNAMGERFAQYALSSEKLYRDIVTDNADDYRFAQWQLAVIALVVVLILLVAWYGIRRMLLTPLAKIIAHIREIAGGNLANTLTIDGRSEMGDLAQSVSHMAAGVKQLADDRTLLMAGVSHDLRTPLTRIRLATEMMSEQDGYLAESINKDIEECNAIIEQFIDYLRTGQEMPMEMADLNAVLGEVIAAESGYEREIETALYPGSIEVKMHPLSIKRAVANMVVNAARYGNGWIKVSSGTEPNRAWFQVEDDGPGIAPEQRKHLFQPFVRGDSARTISGTGLGLAIVQRIVDNHNGMLELGTSERGGLSIRAWLPVPVTRAQGTTKEG
modifications: Fusion protein
As for B6, the induction by aspartate result in test [1] (aspartate) is “retains the ability to be induced by aspartate”. The response to maltose result in test [1] (maltose) is reported as “no longer shows a response to maltose”.
